How the values were obtained:
Test in all cases: crystal structure; disulfide cross-linked CA hexamers, hanging- or sitting-drop vapour diffusion, data at 100 K, molecular replacement with PDB 3H47
[1] = molecular target: HIV-1(M-group) CA Q50Y hexamer (A14C, E45C, Q50Y, W184A, M185A) (HIV-1 group M)
[2] = molecular target: HIV-1(O-group) CA hexamer (A14C, E45C, W185A, M186A) (HIV-1 group O)
[3] = molecular target: SIVcpz CA hexamer (P14C, E45C, W184A, M185A) (SIVcpzPtt (SIV of central chimpanzees))
[4] = molecular target: SIVmac CA hexamer (P13C, E44C, W182A, M183A) (SIVmac (SIV from macaques))

With “HIV-1(M-group) CA Q50Y hexamer (A14C, E45C, Q50Y, W184A, M185A) (natural protein)” the stoichiometry N [1] was 6.
“HIV-1(O-group) CA hexamer (A14C, E45C, W185A, M186A) (natural protein)” was tested, and the stoichiometry N [2] was 6.
With “SIVcpz CA hexamer (P14C, E45C, W184A, M185A) (natural protein)” the stoichiometry N [3] was 6.
With “SIVmac CA hexamer (P13C, E44C, W182A, M183A) (natural protein)” the stoichiometry N [4] was 6.

Reference: publication PMC9613477
